Measured values: patent publication US20260266848A1, “COMPOSITIONS AND METHODS FOR DIAGNOSING AND TREATING DYSTONIA” (Duke University, priority 2023, published 2026)

B1: RBM3 (protein, UniProt P98179 1-157, looked up)
RNA-binding protein 3: MSSEEGKLFVGGLNFNTDEQALEDHFSSFGPISEVVVVKDRETQRSRGFGFITFTNPEHASVAMRAMNGESLDGRQIRVDHAGKSARGTRGGGFGAHGRGRSYSRGGGDQGYGSGRYYDSRPGGYGYGYGRSRDYNGRNQGGYDRYSGGNYRDNYDN
B2: SEC31A (protein, UniProt O94979 1-1220, looked up)
Protein transport protein …: MKLKEVDRTAMQAWSPAQNHPIYLATGTSAQQLDATFSTNASLEIFELDLSDPSLDMKSCATFSSSHRYHKLIWGPYKMDSKGDVSGVLIAGGENGNIILYDPSKIIAGDKEVVIAQNDKHTGPVRALDVNIFQTNLVASGANESEIYIWDLNNFATPMTPGAKTQPPEDISCIAWNRQVQHILASASPSGRATVWDLRKNEPIIKVSDHSNRMHCSGLAWHPDVATQMVLASEDDRLPVIQMWDLRFASSPLRVLENHARGILAIAWSMADPELLLSCGKDAKILCSNPNTGEVLYELPTNTQWCFDIQWCPRNPAVLSAASFDGRISVYSIMGGSTDGLRQKQVDKLSSSFGNLDPFGTGQPLPPLQIPQQTAQHSIVLPLKKPPKWIRRPVGASFSFGGKLVTFENVRMPSHQGAEQQQQQHHVFISQVVTEKEFLSRSDQLQQAVQSQGFINYCQKKIDASQTEFEKNVWSFLKVNFEDDSRGKYLELLGYRKEDLGKKIALALNKVDGANVALKDSDQVAQSDGEESPAAEEQLLGEHIKEEKEESEFLPSSGGTFNISVSGDIDGLITQALLTGNFESAVDLCLHDNRMADAIILAIAGGQELLARTQKKYFAKSQSKITRLITAVVMKNWKEIVESCDLKNWREALAAVLTYAKPDEFSALCDLLGTRLENEGDSLLQTQACLCYICAGNVEKLVACWTKAQDGSHPLSLQDLIEKVVILRKAVQLTQAMDTSTVGVLLAAKMSQYANLLAAQGSIAAALAFLPDNTNQPNIMQLRDRLCRAQGEPVAGHESPKIPYEKQQLPKGRPGPVAGHHQMPRVQTQQYYPHGENPPPPGFIMHGNVNPNAAGQLPTSPGHMHTQVPPYPQPQPYQPAQPYPFGTGGSAMYRPQQPVAPPTSNAYPNTPYISSASSYTGQSQLYAAQHQASSPTSSPATSFPPPPSSGASFQHGGPGAPPSSSAYALPPGTTGTLPAASELPASQRTGPQNGWNDPPALNRVPKKKKMPENFMPPVPITSPIMNPLGDPQSQMLQQQPSAPVPLSSQSSFPQPHLPGGQPFHGVQQPLGQTGMPPSFSKPNIEGAPGAPIGNTFQHVQSLPTKKITKKPIPDEHLILKTTFEDLIQRCLSSATDPQTKRKLDDASKRLEFLYDKLREQTLSPTITSGLHNIARSIETRNYSEGLTMHTHIVSTSNFSETSAFMPVLKVVLTQANKLGV
B3: MARS1 (protein, UniProt P56192 1-900, looked up)
Methionine--tRNA ligase, …: MRLFVSDGVPGCLPVLAAAGRARGRAEVLISTVGPEDCVVPFLTRPKVPVLQLDSGNYLFSTSAICRYFFLLSGWEQDDLTNQWLEWEATELQPALSAALYYLVVQGKKGEDVLGSVRRALTHIDHSLSRQNCPFLAGETESLADIVLWGALYPLLQDPAYLPEELSALHSWFQTLSTQEPCQRAAETVLKQQGVLALRPYLQKQPQPSPAEGRAVTNEPEEEELATLSEEEIAMAVTAWEKGLESLPPLRPQQNPVLPVAGERNVLITSALPYVNNVPHLGNIIGCVLSADVFARYSRLRQWNTLYLCGTDEYGTATETKALEEGLTPQEICDKYHIIHADIYRWFNISFDIFGRTTTPQQTKITQDIFQQLLKRGFVLQDTVEQLRCEHCARFLADRFVEGVCPFCGYEEARGDQCDKCGKLINAVELKKPQCKVCRSCPVVQSSQHLFLDLPKLEKRLEEWLGRTLPGSDWTPNAQFITRSWLRDGLKPRCITRDLKWGTPVPLEGFEDKVFYVWFDATIGYLSITANYTDQWERWWKNPEQVDLYQFMAKDNVPFHSLVFPCSALGAEDNYTLVSHLIATEYLNYEDGKFSKSRGVGVFGDMAQDTGIPADIWRFYLLYIRPEGQDSAFSWTDLLLKNNSELLNNLGNFINRAGMFVSKFFGGYVPEMVLTPDDQRLLAHVTLELQHYHQLLEKVRIRDALRSILTISRHGNQYIQVNEPWKRIKGSEADRQRAGTVTGLAVNIAALLSVMLQPYMPTVSATIQAQLQLPPPACSILLTNFLCTLPAGHQIGTVSPLFQKLENDQIESLRQRFGGGQAKTSPKPAVVETVTTAKPQQIQALMDEVTKQGNIVRELKAQKADKNEVAAEVAKLLDLKKQLAVAEGKPPEAPKGKKKK
B4: TUBB1 (protein, UniProt Q9H4B7 1-451, looked up)
Tubulin beta-1 chain: MREIVHIQIGQCGNQIGAKFWEMIGEEHGIDLAGSDRGASALQLERISVYYNEAYGRKYVPRAVLVDLEPGTMDSIRSSKLGALFQPDSFVHGNSGAGNNWAKGHYTEGAELIENVLEVVRHESESCDCLQGFQIVHSLGGGTGSGMGTLLMNKIREEYPDRIMNSFSVMPSPKVSDTVVEPYNAVLSIHQLIENADACFCIDNEALYDICFRTLKLTTPTYGDLNHLVSLTMSGITTSLRFPGQLNADLRKLAVNMVPFPRLHFFMPGFAPLTAQGSQQYRALSVAELTQQMFDARNTMAACDLRRGRYLTVACIFRGKMSTKEVDQQLLSVQTRNSSCFVEWIPNNVKVAVCDIPPRGLSMAATFIGNNTAIQEIFNRVSEHFSAMFKRKAFVHWYTSEGMDINEFGEAENNIHDLVSEYQQFQDAKAVLEEDEEVTEEAEMEPEDKGH
B5: EHD4 (protein, UniProt Q9H223 1-541, looked up)
EH domain-containing protein 4: MFSWMGRQAGGRERAGGADAVQTVTGGLRSLYLRKVLPLEEAYRFHEFHSPALEDADFENKPMILLVGQYSTGKTTFIRYLLEQDFPGMRIGPEPTTDSFIAVMYGETEGSTPGNALVVDPKKPFRKLSRFGNAFLNRFMCSQLPNQVLKSISVIDSPGILSGEKQRISRGYDFCQVLQWFAERVDRIILLFDAHKLDISDEFSEAIKAFRGQDDKIRVVLNKADQVDTQQLMRVYGALMWSLGKVINTPEVLRVYIGSFWAQPLQNTDNRRLFEAEAQDLFRDIQSLPQKAAVRKLNDLIKRARLAKVHAYIISYLKKEMPSVFGKENKKRELISRLPEIYIQLQREYQISAGDFPEVKAMQEQLENYDFTKFHSLKPKLIEAVDNMLSNKISPLMNLISQEETSTPTQLVQGGAFDGTTEGPFNQGYGEGAKEGADEEEWVVAKDKPVYDELFYTLSPINGKISGVNAKKEMVTSKLPNSVLGKIWKLADCDCDGMLDEEEFALAKHLIKIKLDGYELPSSLPPHLVPPSHRKSLPKAD
B6: ANO6 (protein, UniProt Q4KMQ2 1-910, looked up)
Anoctamin-6: MKKMSRNVLLQMEEEEDDDDGDIVLENLGQTIVPDLGSLESQHDFRTPEFEEFNGKPDSLFFNDGQRRIDFVLVYEDESRKETNKKGTNEKQRRKRQAYESNLICHGLQLEATRSVLDDKLVFVKVHAPWEVLCTYAEIMHIKLPLKPNDLKNRSSAFGTLNWFTKVLSVDESIIKPEQEFFTAPFEKNRMNDFYIVDRDAFFNPATRSRIVYFILSRVKYQVINNVSKFGINRLVNSGIYKAAFPLHDCKFRRQSEDPSCPNERYLLYREWAHPRSIYKKQPLDLIRKYYGEKIGIYFAWLGYYTQMLLLAAVVGVACFLYGYLNQDNCTWSKEVCHPDIGGKIIMCPQCDRLCPFWKLNITCESSKKLCIFDSFGTLVFAVFMGVWVTLFLEFWKRRQAELEYEWDTVELQQEEQARPEYEARCTHVVINEITQEEERIPFTAWGKCIRITLCASAVFFWILLIIASVIGIIVYRLSVFIVFSAKLPKNINGTDPIQKYLTPQTATSITASIISFIIIMILNTIYEKVAIMITNFELPRTQTDYENSLTMKMFLFQFVNYYSSCFYIAFFKGKFVGYPGDPVYWLGKYRNEECDPGGCLLELTTQLTIIMGGKAIWNNIQEVLLPWIMNLIGRFHRVSGSEKITPRWEQDYHLQPMGKLGLFYEYLEMIIQFGFVTLFVASFPLAPLLALVNNILEIRVDAWKLTTQFRRLVPEKAQDIGAWQPIMQGIAILAVVTNAMIIAFTSDMIPRLVYYWSFSVPPYGDHTSYTMEGYINNTLSIFKVADFKNKSKGNPYSDLGNHTTCRYRDFRYPPGHPQEYKHNIYYWHVIAAKLAFIIVMEHVIYSVKFFISYAIPDVSKRTKSKIQREKYLTQKLLHENHLKDMTKNMGVIAERMIEAVDNNLRPKSE
B7: PITPNB (protein, UniProt P48739 1-271, looked up)
Phosphatidylinositol transfer …: MVLIKEFRVVLPCSVQEYQVGQLYSVAEASKNETGGGEGIEVLKNEPYEKDGEKGQYTHKIYHLKSKVPAFVRMIAPEGSLVFHEKAWNAYPYCRTIVTNEYMKDDFFIKIETWHKPDLGTLENVHGLDPNTWKTVEIVHIDIADRSQVEPADYKADEDPALFQSVKTKRGPLGPNWKKELANSPDCPQMCAYKLVTIKFKWWGLQSKVENFIQKQEKRIFTNFHRQLFCWIDKWIDLTMEDIRRMEDETQKELETMRKRGSVRGTSAADV

System: DYT1 patient plasma derived EVs
Assay: Plasma-derived EV proteomics (ExoQuick ULTRA, DIA LC/MS/MS), DYT1 vs Healthy Controls
Parameters: species or system human
Settings: Hs. Plasma EVs (DYT1/WT); significance of genotype difference
Summary of the method: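 Quantitative LC/MS/MS in data-independent acquisition on an Orbitrap Astral (4 m/z windows over m/z 380-980, HCD 27%), 500 ng of each EV sample. EVs were isolated from plasma by ExoQuick ULTRA, separated by EvoSep SPD30 gradient at 50 C.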

Molecule	-LogP
B1	2.179
B2	1.85
B3	1.714
B4	2.267
B5	3.322
B6	1.411
B7	1.575
